The supplement of paper PMC12042874
± gives the uncertainty stated by the source.

Assay: amyloid nucleation score (Sup35N fusion, yeast selection) (log enrichment); library NNK1; higher = more nucleation; inactive = no reads after selection
Outline: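 Random libraries were run with three technical output replicates. In each, psi-negative yeast expressing Sup35N fused to peptides of 20 random codons were induced 24 hours with 100 μM copper sulfate and grown 7 days at 30°C on medium lacking adenine and uracil, and input and output plasmid inserts were Illumina-sequenced. The nucleation score is the DiMSum log enrichment of output over input reads, centred on the mode score of non-aggregating sequences, and sequences under 100 input reads were excluded.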

Row | Substance | amyloid nucleation score
1 | PCCWLPRGDTLDYTQHR | -0.065 ± 0.98
2 | LRTGQGHYDRVVGHRHNLCA | -1.42 ± 0.9
3 | GPYCHGWNLKNERAVSLRG | -0.647 ± 0.47
4 | VKVVALRIWRSEDLVVRFWG | 0.562 ± 0.78
5 | MEPLVTQCRHKG | -1.31 ± 1.1
6 | MLTPDLSSDLDILRPTSPLT | 0.879 ± 0.51
7 | FTWIVFANSSAYFRTLQWSC | 0.032 ± 0.28
8 | VLGLGSC | -0.15 ± 0.54
9 | RSVWDRWFDPIMTFEQESTW | -0.812 ± 1.7
10 | KRYSGDIDMTSREMGLFK | 0.356 ± 0.16
11 | YNKCLCAVLSRMFTGWHISA | 0.795 ± 0.88
12 | GKLSCYPCTGCL | -0.109 ± 1.4
13 | GKPWSSCHENSLINMDHSDV | inactive
14 | RWSQNMGSKSVRGTKFNLKL | 0.846 ± 0.21
15 | VHFEGFWAFTLVDLT | 0.232 ± 0.48
16 | WNGTFNVPWSFDFRCSWVGK | 0.719 ± 0.79
17 | RASDRSSIMICF | 0.382 ± 1.4
18 | TWPVLSDGQAGELRVRMGSA | 0.741 ± 0.88
19 | GISSCWLRRFHVAKRARPSG | -1.02 ± 2.7
20 | RIWSLRPFRSEYLRVCFFVS | 0.437 ± 0.78
21 | TTVANTSAVFCEAVCKGMQK | 0.078 ± 0.99
22 | WYYYTVSSEGSNSAGTKLRG | 0.376 ± 0.38
23 | KSLQRWRDRCRDHVLSAS | -0.083 ± 1
24 | RHFRMGRHRFEGWVLTGASG | 0.194 ± 0.38
25 | FLFRFQKCLFNCFVLGLVSR | -0.206 ± 0.53

Row | Substance | amyloid nucleation score
26 | IVLRFIRILISINLSQEH | -1.14 ± 0.76
27 | HGTCRC | 0.034 ± 0.68
28 | GYLCLGSCNRSVSLLSSTGS | 0.407 ± 0.47
29 | DIVSVVVWLKQYLWFEQWNV | 0.644 ± 0.81
30 | LRRFLPMALDDED | -0.676 ± 1.4
31 | LHCARGLVRRNMSSSLRWLA | inactive
32 | SWRSSTCSALVQGQYKA | -0.051 ± 0.32
33 | FWNINSSFFGLTNDTLVPNF | 0.79 ± 0.22
34 | CSNRWYVNMFVHWIFVHLGS | 1.47 ± 0.53
35 | SQYDWLKLFSNVY | -0.175 ± 0.21
36 | TGDVLIYWFLVTHRMTAVQV | -0.096 ± 1
37 | IHWFVFYFLKKFCYYRSYAR | 0.389 ± 0.4
38 | MHWLRGVRS | 0.082 ± 0.47
39 | NAVINQ | 0.388 ± 0.73
40 | NFINVVVWQEGYLRVIHTSV | 0.537 ± 1.1
41 | LDIRVCRLPRSVFNR | -0.002 ± 1
42 | TLLPARGGKKAR | 0.256 ± 0.49
43 | SSMNSWTDFFHFCST | 0.032 ± 0.97
44 | SKSTYSLIGLGTFISRFNGN | 1.03 ± 0.36
45 | RFLTGCICAQSLRQLTS | -0.075 ± 0.48
46 | RAGQVRNNDTSVEFAMCGRW | 0.355 ± 0.38
47 | KGCCLCLISMSVTNRLVEPR | 6.294 ± 0.059
48 | LWDIFFRSLSVLAYNIKMFS | -0.552 ± 1
49 | TTMILWQTQYDYLG | -0.247 ± 0.58
50 | FVTKGVERCRVPEVSLPCLI | -0.839 ± 1.2

Row | Substance | amyloid nucleation score
51 | GSVVYVIQGDMKRVLGFNGM | 5.42 ± 0.096
52 | ARYYLLFAFDNNFCIGVVGS | 4.23 ± 0.099
53 | LFHLPSVYIWFYAT | 6.723 ± 0.053
54 | DPNFITMACQIADECAYCCH | inactive
55 | HKIHAVQLLQVRYLNKRLAG | 0.96 ± 0.17
56 | LVWRFS | 1.56 ± 0.28
57 | SIYRYLCGRFDCLWILPCEH | 1.29 ± 0.84
58 | LSTAWFGQNAHRCLGLVTLA | -0.005 ± 0.59
59 | SLCFYGEQIFHN | 2.24 ± 0.17
60 | NSELFIGGDYLDIDST | 0.591 ± 0.43
61 | RRLFMGPI | 0.802 ± 1
62 | GIRPEN | -0.521 ± 0.49
63 | TFLQFTRYFWLTTYNKGSS | inactive
64 | FLHVPVLFSFTHCFMG | 3.03 ± 0.13
65 | ERYKY | 0.601 ± 0.61
66 | ESKEPFLCIQDITVSSFLPF | -1.69 ± 2.4
67 | GVLNVL | -0.418 ± 0.62
68 | RLSLTINFGNKFRCITGQFD | 4.01 ± 0.091
69 | RHRDLGWRVIRWRAFMTSLW | -1.31 ± 2.1
70 | NGLSRYKKDLGLVDWYFGQM | 0.744 ± 0.37
71 | SYFGYNVIMEIHTI | -0.122 ± 0.31
72 | IMYSQNEGDMYESSFV | -0.551 ± 0.35
73 | CLFLLNVGLSLLIGLPRYMW | 0.552 ± 0.91
74 | VIDYVGFRHTGGGSVGFVGG | -0.387 ± 0.65
75 | VDLNSGQSMNLGTYECRSNV | -1.49 ± 1.8

Row | Substance | amyloid nucleation score
76 | PHGHVEYLIFFCNKPGSHGS | 1.49 ± 0.3
77 | RLGPYSATWFVGKGKREGGV | 0.571 ± 0.55
78 | GTFISLLLS | -0.077 ± 0.26
79 | SMSPWDFNICCMNVCTTLLT | 2.77 ± 0.25
80 | VSRMP | 3.21 ± 0.12
81 | FSTHSIWSLRVSNSVSLFNE | 0.178 ± 0.66
82 | FSGLCRSTPGI | -0.469 ± 0.32
83 | FRKGDILRTFSMFKSKYTVG | 0.839 ± 0.65
84 | LRLLSNVKWTKCS | 0.367 ± 0.97
85 | CWASRSSCSLLYVRVVMRHC | 0.371 ± 0.57
86 | SDGRNHTANYPWG | -0.182 ± 0.65
87 | YYCTQRLNSHSVLMSLADRW | 0.035 ± 0.76
88 | DNKFYHKVTDRRFLIPIFQI | -0.331 ± 0.37
89 | FSPSLVMHSATSLRNVGLSA | -0.93 ± 2.4
90 | DACCYDECVS | 0.782 ± 0.25
91 | NPVPGARKNRVHAGSKSDTG | 0.075 ± 0.68
92 | WSKDNTIVEISYGTSGLVQL | 0.39 ± 0.26
93 | PCLLCVYCMFL | 4.53 ± 0.055
94 | AGSNSFIFFLVRFFVRALGR | -0.67 ± 0.34
95 | YKMCFSKVYESTEPMMCTGV | -0.904 ± 0.8
96 | IRQTVVLGL | -0.732 ± 0.7
97 | VVVCSNLMYLNCNWAATNNL | 7.163 ± 0.047
98 | CLETRYL | 1.15 ± 0.54
99 | LRLRVTNVLILGSLGIDEMY | 2.37 ± 0.28
100 | WQQWGRSPRTR | 0.368 ± 0.46

Row | Substance | amyloid nucleation score
101 | LYCMGVLPSLLAISMVWVRG | 2.94 ± 0.2
102 | TSTYWQVDEAV | -0.325 ± 0.52
103 | EIVRLVSVSVWVG | 0.014 ± 0.69
104 | RKRSSRVIDVTGRWAVLTYP | 0.074 ± 0.46
105 | TDAPHTCWLFFLYSVSFLIV | -0.204 ± 0.43
106 | SSFARL | 1.12 ± 0.55
107 | RSEYAPRTNYK | -0.237 ± 0.48
108 | TNTSWVFVVCIEHKEMDQAV | 5.9 ± 0.086
109 | FVEVVRTLEQI | -0.485 ± 1
110 | MMGGSRWTCCYTFDFWSCWD | 4.27 ± 0.1
111 | VISVNLGFFPSFVIRASVAS | 5.45 ± 0.079
112 | VHRQMEMIIKIVWTRAYAFT | 2.33 ± 0.6
113 | SVWLANCYGKYMGVVCYSKV | 0.537 ± 0.32
114 | RARWDPFLMCYLTVVWTSFV | -0.12 ± 0.29
115 | TMWIAGVRNR | -0.367 ± 0.62
116 | YRGMGTTPKFT | 0.356 ± 1
117 | VFNTVVS | -0.161 ± 0.41
118 | VSLYM | 0.924 ± 0.97
119 | FFYLIISGMVMLSNPLSRVS | inactive
120 | HFKRWLVNLFLTEFEKSYGV | -1.28 ± 0.62
121 | FRYKDGCSFSTAVDYSCRMF | 1.06 ± 0.23
122 | TSSTRILISTTELVRNYCYC | 1.37 ± 0.26
123 | CDNLRCRGLGDWCAWQPLTS | 0.335 ± 0.65
124 | AKSQYMVVVYMPIYLWQCYI | 4.01 ± 0.14
125 | LYHGVYPKFLYKLVVESSLS | -1.79 ± 1.7

Row | Substance | amyloid nucleation score
126 | ALFCDDEYRRDYW | 0.192 ± 0.31
127 | PAGTGINLMICVARGGRTSG | 5.24 ± 0.1
128 | GIRQLMAPYKPERWCWQRVG | 0.344 ± 0.51
129 | DSYWFRRLC | 0.22 ± 0.71
130 | VYSMWTERQFLGMILGGEAG | -0.091 ± 0.85
131 | EGLARCQCLCLTRVIYVESA | -0.403 ± 1.4
132 | SMFCARLDTRVSRTGFPDRG | -0.557 ± 0.61
133 | LFLCMDTYIYLNLNSGGYSG | 4.8 ± 0.1
134 | SYLGSAAIYVCLAGRPSGQR | -0.725 ± 1.2
135 | LIGFAGRVYGAFLQVSMTWN | 3.2 ± 0.15
136 | LCLSCLWMGETRPRSNPVNL | 6.24 ± 0.068
137 | AAVGALGKSRSL | 1.17 ± 0.73
138 | NCVRSCISMQVYCTPAVVMY | 5.483 ± 0.053
139 | YIVTTLQYDRSLASKVDEGT | -0.489 ± 0.56
140 | FCLNGRYECGSRMECEMVRE | -0.741 ± 0.39
141 | ELSVNMSRDLSVTGLVQGRR | 0.794 ± 0.36
142 | RVYRYLPYRYERCLDL | -0.504 ± 0.93
143 | RVFSSFGFMKRRPVWTVWIT | -0.324 ± 0.81
144 | SNSLCETWSRWWKRMFTDTF | 0.179 ± 0.48
145 | RKYQQGSLHDSGIKNHFFRV | -0.97 ± 1.7
146 | AWAVGFYPFCRMFRSLYNYW | 0.387 ± 0.98
147 | CLGNNSFGDLGI | 0.368 ± 0.34
148 | CLVWLGNNFLDSLWGEGGRA | -0.291 ± 0.38
149 | GKNDLSMNIGELWASGRGVV | 2.18 ± 0.24
150 | DNRLMHIIDMWCRSYFSGHT | -0.063 ± 1.4

Row | Substance | amyloid nucleation score
151 | HCTLHSSVCSSGCWIE | 1.1 ± 0.97
152 | NPLHTMFTLYEIRQWRLF | -0.048 ± 0.3
153 | FNVISVWSPWQW | 6.3 ± 0.064
154 | VTMVRYCALIQSYGGDGELV | 0.26 ± 0.45
155 | LPFGGAWVSLCLLRVICILR | inactive
156 | SGRWLYVLVPICMPYVAELS | inactive
157 | GLVTRMSQTHPVSYNHITIL | -0.072 ± 0.28
158 | YYVMRYDASLYDKRKERVFG | 0.851 ± 0.39
159 | SFPVQQIYF | 0.971 ± 0.49
160 | QSETDQIFEVFFSDWHSCTK | 0.777 ± 0.97
161 | CLLVKLARLGDG | 0.536 ± 0.63
162 | SVCMLPIDGMGEEVRVFPGV | -0.641 ± 0.62
163 | FATRTLVYVYFRWCHDDLSH | 0.584 ± 0.56
164 | VENNWIWVGRTLNATLDSHQ | 0.082 ± 0.26
165 | NARFWVRCIDVHFGVKAGDG | inactive
166 | NVDSRFD | -1.1 ± 0.81
167 | PYFLGGRA | -0.809 ± 2.1
168 | SLSQFSKPGYICVNMVCSQA | 1.36 ± 0.48
169 | MGYRDNLSF | 0.915 ± 0.53
170 | SSLRPRKCCWRKTRRLSKGG | 0.441 ± 0.67
171 | IKWLGLTSHRWIYTSGLRIL | inactive
